Experiments:
[1] = target: T1, Csa5 (Csa5b) WT (Thermoproteus tenax Kra1) (UniProt G4RJZ0); test: EMSA; conditions: EMSA: 100 mM HEPES/KOH pH 7, 10 mM beta-mercaptoethanol, 37 C 30 min, 6% native TBE PAGE; MST: 50 mM Tris-HCl pH 7.4, 150 mM NaCl, 0.05% Tween-20, 37 C 30 min …
T1 sequence: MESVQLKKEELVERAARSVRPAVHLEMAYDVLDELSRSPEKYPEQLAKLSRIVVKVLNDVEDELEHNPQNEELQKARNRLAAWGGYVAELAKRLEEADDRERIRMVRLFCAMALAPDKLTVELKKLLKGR

[2] = target: T2, Thermoproteus tenax Cas7 (Thermoproteus tenax, UniProt G4RJZ1 1-329); test: co-refolding reconstitution, soluble fraction by SDS-PAGE; 300 µg of each GdmCl-solubilized Cas5a, Cas3′, Cas3″ and Cas8a2 mixed with purified Cas7 and a Csa5 variant, co-refolded by stepwise dialysis into GdmCl-free buffer; aggregates precipitated (14,000×g, 30 min, 4°C), soluble proteins concentrated and analysed by SDS-PAGE; conditions: both partners purified
T2 sequence (looked up): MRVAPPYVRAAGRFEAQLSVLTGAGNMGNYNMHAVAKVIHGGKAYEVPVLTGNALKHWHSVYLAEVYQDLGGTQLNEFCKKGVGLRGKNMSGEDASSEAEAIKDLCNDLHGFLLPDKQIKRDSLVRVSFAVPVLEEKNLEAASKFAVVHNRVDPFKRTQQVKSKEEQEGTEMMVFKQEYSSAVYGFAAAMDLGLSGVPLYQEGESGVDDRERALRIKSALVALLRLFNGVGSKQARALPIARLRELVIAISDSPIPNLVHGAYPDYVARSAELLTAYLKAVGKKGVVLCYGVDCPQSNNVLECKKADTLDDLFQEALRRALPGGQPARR

[3] = target: T3, Thermoproteus tenax Cas8a2 (Thermoproteus tenax, UniProt G4RJZ5 1-361); test: as above; conditions: both partners purified
T3 construct: also called large subunit
T3 sequence (looked up): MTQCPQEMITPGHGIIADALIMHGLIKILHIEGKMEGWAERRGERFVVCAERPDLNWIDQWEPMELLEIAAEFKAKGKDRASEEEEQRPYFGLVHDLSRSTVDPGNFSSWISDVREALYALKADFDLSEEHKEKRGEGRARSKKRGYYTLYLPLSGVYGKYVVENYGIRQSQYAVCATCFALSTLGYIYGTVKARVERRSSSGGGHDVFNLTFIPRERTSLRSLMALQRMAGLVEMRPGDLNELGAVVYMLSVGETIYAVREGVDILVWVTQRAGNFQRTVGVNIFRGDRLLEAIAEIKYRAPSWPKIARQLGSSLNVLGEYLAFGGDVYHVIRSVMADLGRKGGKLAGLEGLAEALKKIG

[4] = target: T4, Thermoproteus tenax Cas5a (Thermoproteus tenax, UniProt G4RJZ2 1-226); test: as above; conditions: both partners purified
T4 sequence (looked up): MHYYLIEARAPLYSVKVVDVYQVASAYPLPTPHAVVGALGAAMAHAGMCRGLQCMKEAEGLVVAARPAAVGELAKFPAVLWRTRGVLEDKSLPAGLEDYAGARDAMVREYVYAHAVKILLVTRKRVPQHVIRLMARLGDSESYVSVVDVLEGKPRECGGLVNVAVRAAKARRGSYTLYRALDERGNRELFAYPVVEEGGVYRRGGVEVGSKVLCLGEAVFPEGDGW

[5] = target: T5, Csa5 (Csa5b) WT (Thermoproteus tenax Kra1, UniProt G4RJZ0 1-130); test: MST; Tris pH 7.4, 150 mM NaCl; no metal; EMSA: 100 mM HEPES/KOH pH 7, 10 mM beta-mercaptoethanol, 37 C 30 min, 6% native TBE PAGE; MST: 50 mM Tris-HCl pH 7.4, 150 mM NaCl, 0.05% Tween-20, 37 C 30 min; conditions: protein: recombinant; tags: none stated (pET24a); label: 5' Cy3
T5 sequence: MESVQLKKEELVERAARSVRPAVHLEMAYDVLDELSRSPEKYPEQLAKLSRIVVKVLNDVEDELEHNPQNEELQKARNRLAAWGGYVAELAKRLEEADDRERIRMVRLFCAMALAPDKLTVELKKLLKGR

[6] = target: T5, Csa5 (Csa5b) WT; test: EMSA; 15 uM Csa5; EMSA: 100 mM HEPES/KOH pH 7, 10 mM beta-mercaptoethanol, 37 C 30 min, 6% native TBE PAGE; MST: 50 mM Tris-HCl pH 7.4, 150 mM NaCl, 0.05% Tween-20, 37 C 30 min; conditions: protein: recombinant; tags: none stated (pET24a); label: 5' 32P
[7] = target: T5, Csa5 (Csa5b) WT; test: EMSA; duplex formed with 1000x cold crRNA; 15 uM Csa5; EMSA: 100 mM HEPES/KOH pH 7, 10 mM beta-mercaptoethanol, 37 C 30 min, 6% native TBE PAGE; MST: 50 mM Tris-HCl pH 7.4, 150 mM NaCl, 0.05% Tween-20, 37 C 30 min; conditions: protein: recombinant; tags: none stated (pET24a); label: 5' 32P on DNA
[8] = target: T5, Csa5 (Csa5b) WT; test: EMSA; 3.75-60 uM Csa5; EMSA: 100 mM HEPES/KOH pH 7, 10 mM beta-mercaptoethanol, 37 C 30 min, 6% native TBE PAGE; MST: 50 mM Tris-HCl pH 7.4, 150 mM NaCl, 0.05% Tween-20, 37 C 30 min; conditions: protein: recombinant; tags: none stated (pET24a); label: 5' 32P
[9] = target: T5, Csa5 (Csa5b) WT; test: EMSA; no difference from GAG-PAM; EMSA: 100 mM HEPES/KOH pH 7, 10 mM beta-mercaptoethanol, 37 C 30 min, 6% native TBE PAGE; MST: 50 mM Tris-HCl pH 7.4, 150 mM NaCl, 0.05% Tween-20, 37 C 30 min; conditions: protein: recombinant; tags: none stated (pET24a); label: 5' 32P
[10] = target: T5, Csa5 (Csa5b) WT; test: EMSA; no difference from AGG-PAM; EMSA: 100 mM HEPES/KOH pH 7, 10 mM beta-mercaptoethanol, 37 C 30 min, 6% native TBE PAGE; MST: 50 mM Tris-HCl pH 7.4, 150 mM NaCl, 0.05% Tween-20, 37 C 30 min; conditions: protein: recombinant; tags: none stated (pET24a); label: 5' 32P
[11] = target: T5, Csa5 (Csa5b) WT; test: EMSA; 7-fold weaker than NT DNA; EMSA: 100 mM HEPES/KOH pH 7, 10 mM beta-mercaptoethanol, 37 C 30 min, 6% native TBE PAGE; MST: 50 mM Tris-HCl pH 7.4, 150 mM NaCl, 0.05% Tween-20, 37 C 30 min; conditions: protein: recombinant; tags: none stated (pET24a); label: 5' 32P

## GTCGACTAATACGACTCACTATAGGCCTATCGCTTGTCCAACCGGGCTCCTCTATATGTCGTCATTAGCTTACCGCTGAGCAATAACTAGCAAGCTT (double strand) [NT/T dsDNA 97 bp]
[1]
  binding signal (fold weaker than ssDNA): 14

B1: Thermoproteus tenax Csa5 wild type (TTX_1250) (natural protein, Thermoproteus tenax Kra1, UniProt G4RJZ0 1-130, looked up)
chain: MESVQLKKEELVERAARSVRPAVHLEMAYDVLDELSRSPEKYPEQLAKLSRIVVKVLNDVEDELEHNPQNEELQKARNRLAAWGGYVAELAKRLEEADDRERIRMVRLFCAMALAPDKLTVELKKLLKGR
notes: Csa5 (Csa5b), small subunit of the type I-A Cascade, Thermoproteus tenax Kra1, locus TTX_1250; theoretical mass of the monomer 15.04 kDa; no tag is named and the purification uses none; also called Csa5 WT; Csa5b; source: E. coli Rosetta(DE3)pLysS, purified (heat precipitation 90°C, Blue-Sepharose, MonoQ)
[2]
  binding result: binds
[3]
  binding result: binds
[4]
  binding result: binds

B2: Thermoproteus tenax Csa5 D30A/D33A (natural protein, Thermoproteus tenax Kra1, UniProt G4RJZ0 1-130, looked up)
chain: MESVQLKKEELVERAARSVRPAVHLEMAYAVLAELSRSPEKYPEQLAKLSRIVVKVLNDVEDELEHNPQNEELQKARNRLAAWGGYVAELAKRLEEADDRERIRMVRLFCAMALAPDKLTVELKKLLKGR
notes: Made by site-directed mutagenesis of the pET24a csa5 construct; source: E. coli Rosetta(DE3)pLysS, purified (heat precipitation 90°C, Blue-Sepharose, MonoQ)
[2]
  binding result: binds
[3]
  binding result: binds
[4]
  binding result: binds

B3: Thermoproteus tenax Csa5 D33A (natural protein, Thermoproteus tenax Kra1, UniProt G4RJZ0 1-130, looked up)
chain: MESVQLKKEELVERAARSVRPAVHLEMAYDVLAELSRSPEKYPEQLAKLSRIVVKVLNDVEDELEHNPQNEELQKARNRLAAWGGYVAELAKRLEEADDRERIRMVRLFCAMALAPDKLTVELKKLLKGR
notes: as for B2
[2]
  binding result: binds
[3]
  binding result: binds
[4]
  binding result: binds

B4: Thermoproteus tenax Csa5 Y29A (natural protein, Thermoproteus tenax Kra1, UniProt G4RJZ0 1-130, looked up)
chain: MESVQLKKEELVERAARSVRPAVHLEMAADVLDELSRSPEKYPEQLAKLSRIVVKVLNDVEDELEHNPQNEELQKARNRLAAWGGYVAELAKRLEEADDRERIRMVRLFCAMALAPDKLTVELKKLLKGR
notes: as for B2
[2]
  binding result: binds
[3]
  binding result: binds
[4]
  binding result: binds

B5: Cy3-non-target ssDNA 80 nt (ssDNA)
DNA: CGACTCACTATAGGCCTATCGCTTGTCCAACCGGGCTCCTCTATATGTCGTCATTAGCTTACCGCTGAGCAATAACTAGC
[5]
  Kd: 6.49 µM

B6: target (T) ssDNA 97 nt (ssDNA)
DNA: AAGCTTGCTAGTTATTGCTCAGCGGTAAGCTAATGACGACATATAGAGGAGCCCGGTTGGACAAGCGATAGGCCTATAGTGAGTCGTATTAGTCGAC
[6]
  binding result: binds

B7: T DNA:crRNA hybrid (DNA:RNA)
DNA: AAGCTTGCTAGTTATTGCTCAGCGGTAAGCTAATGACGACATATAGAGGAGCCCGGTTGGACAAGCGATAGGCCTATAGTGAGTCGTATTAGTCGAC
RNA: AUUGAAAGAUCGCUUGUCCAACCGGGCUCCUCUAUAUGUCGUCAUUAGCUUAGA
[7]
  binding result: no binding

B8: CCA-PAM poly-PAM ssDNA (ssDNA)
DNA: AAAACCAAAACCAAAACCAAAACCAAAACCAAAACCAAAACCAAAACCAAAACCAAAACCAAAACCAAAACCAAAACCAAAACCAAAACCAAAACCAAAA
[8]
  binding result: binds

B9: CAC-PAM disrupted poly-PAM ssDNA (ssDNA)
DNA: AAAACACAAACACAAACACAAACACAAACACAAACACAAACACAAACACAAACACAAACACAAACACAAACACAAACACAAACACAAACACAAACACAAA
[8]
  binding result: binds

B10: AGG-PAM poly-PAM ssDNA (ssDNA)
DNA: AAAAGGAAAAGGAAAAGGAAAAGGAAAAGGAAAAGGAAAAGGAAAAGGAAAAGGAAAAGGAAAAGGAAAAGGAAAAGGAAAAGGAAAAGGAAAAGGAAAA
[9]
  binding result: binds

B11: GAG-PAM disrupted poly-PAM ssDNA (ssDNA)
DNA: AAAAGAGAAAGAGAAAGAGAAAGAGAAAGAGAAAGAGAAAGAGAAAGAGAAAGAGAAAGAGAAAGAGAAAGAGAAAGAGAAAGAGAAAGAGAAAGAGAAA
[10]
  binding result: binds

## GTCGACTAATACGACTCACTATAGGCCTATCGCTTGTC (ssDNA) [p1 (38 nt)]
[11]
  binding signal: 12 % bound at 15 uM

## ATCGCTTGTCCAACCGGGCTCCTCTATATGTCGTCATT (ssDNA) [p2 (38 nt)]
[11]
  binding signal: 12 % bound at 15 uM

## CGTCATTAGCTTACCGCTGAGCAATAACTAGCAAGCTT (ssDNA) [p3 (38 nt)]
[11]
  binding signal: 12 % bound at 15 uM
